Target: T1, SCEEVCKPGGP (SEQ ID NO:47)
T1 chain: SCEEVCKPGGP

B1: Cathepsin K (protein)
chain: APDSVDYRKKGYVTPVKNQGQCGSCWAFSSVGALEGQLKKKTGKLLNLSPQNLVDCVSENDGCGGGYMTNAFQYVQKNRGIDSEDAYPYVGQEESCMYNPTGKAAKCRGYREIPEGNEKALKRAVARVGPVSVAIDASLTSFQFYSKGVYYDESCNSDNLNHAVLAVGYGIQKGNKHWIIKNSWGENWGNKGYILMARNKNNACGIANLASFPKM
Which “cleavage of the peptide by the enzyme” value does the source give for B1 here?
Its value is “This peptide did not inhibit cathepsin K but rather was cleaved by the enzyme”.

Reference: patent publication US20150133367
